How the values were obtained:
[1] = molecular target: HspB1 (Hsp27) (human (endogenous in HeLa)) (UniProt P04792); assay: co-IP; as the 150 mM experiment, but washes of the immunoprecipitated proteins in IPP300 buffer (0.3 M NaCl)
[2] = molecular target: HspB1 (Hsp27) (human (endogenous in HeLa)) (UniProt P04792); assay: co-IP; pooled gel filtration fractions (pool I of WT cells, pool II of R120G cells) with anti-HspB1 or anti-HspB5 antibody, 4 h at 4°C, protein G sepharose; washes in IPP150 (20 mM Tris-HCl pH 8, 150 mM NaCl, 0.05% NP-40); immunoblot of total, precipitate and depleted supernatant
[3] = molecular target: wild type HspB5 (αB-crystallin) (human) (UniProt P02511); assay: SEC; untreated Neo, WT or R120G HeLa cells lysed in TEM buffer with 0.1% Triton X-100; 10,000×g supernatant on a Sepharose 6B column (1×100 cm) in TEM buffer (20 mM Tris-HCl pH 7.4, 20 mM NaCl, 5 mM MgCl2, 0.1 mM EDTA); pooled fractions immunoblotted
wild type HspB5 (αB-crystallin) (human), sequence (P02511 whole entry): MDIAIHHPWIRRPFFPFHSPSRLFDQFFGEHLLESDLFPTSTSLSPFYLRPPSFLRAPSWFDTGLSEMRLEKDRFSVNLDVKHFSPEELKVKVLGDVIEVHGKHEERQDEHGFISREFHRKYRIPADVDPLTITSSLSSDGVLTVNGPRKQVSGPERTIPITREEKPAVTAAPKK

[4] = molecular target: wild type HspB5 (αB-crystallin) (human) (UniProt P02511); assay: SEC; cells treated for 2 h with 60 µM menadione before lysis; 10,000×g supernatant on Sepharose 6B in TEM buffer; fractions immunoblotted
[5] = molecular target: wild type HspB5 (αB-crystallin) (human) (UniProt P02511); assay: co-IP; as the 150 mM experiment, but washes of the immunoprecipitated proteins in IPP300 buffer (0.3 M NaCl)

HspB1 (Hsp27) (human (endogenous in HeLa)), sequence (P04792 whole entry): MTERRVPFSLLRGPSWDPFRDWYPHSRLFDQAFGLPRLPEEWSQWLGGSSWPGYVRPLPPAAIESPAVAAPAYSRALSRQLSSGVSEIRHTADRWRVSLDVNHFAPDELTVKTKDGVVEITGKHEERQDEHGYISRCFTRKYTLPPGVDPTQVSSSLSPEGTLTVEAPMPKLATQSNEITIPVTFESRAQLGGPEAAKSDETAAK

percent of the soluble phosphorylated form in the complex [4] [%] | percent of the total cellular content of the phosphorylated form in the complex [4] [%] | Substance | further results
– | – | wild type HspB5 (αB-crystallin) (from UniProt P02511 1-175) (natural protein) | percent of the partner removed from the complex by the 300 mM NaCl wash [1]: 40%; percent of the proteins in the pooled fractions that were in the complex [2]: 100%
51 | 27 | HspB1 phosphorylated at serine 82 (from UniProt P04792 1-205) (natural protein) | percent of the total cellular content of the phosphorylated form in the complex [3]: 56%
65 | 31 | HspB1 phosphorylated at serine 78 (from UniProt P04792 1-205) (natural protein) | –
56 | 28 | HspB1 phosphorylated at serine 15 (from UniProt P04792 1-205) (natural protein) | –
– | – | HspB1 (Hsp27) (from UniProt P04792 1-205) (natural protein) | percent of HspB1 sharing the native size of HspB5 [3]: 90%; percent of the partner removed from the complex by the 300 mM NaCl wash [5]: 40%; percent of soluble HspB1 back in the small oligomers (out of the complex) [4]: 38%

— article PMC3741289
